Test results as given in publication doi:10.1101/2025.05.23.654710.

Key:
Assay in all cases: EMSA
Msn2 IDR = biological target: T1, Msn2 IDR (Saccharomyces cerevisiae, UniProt P33748)
T1 sequence: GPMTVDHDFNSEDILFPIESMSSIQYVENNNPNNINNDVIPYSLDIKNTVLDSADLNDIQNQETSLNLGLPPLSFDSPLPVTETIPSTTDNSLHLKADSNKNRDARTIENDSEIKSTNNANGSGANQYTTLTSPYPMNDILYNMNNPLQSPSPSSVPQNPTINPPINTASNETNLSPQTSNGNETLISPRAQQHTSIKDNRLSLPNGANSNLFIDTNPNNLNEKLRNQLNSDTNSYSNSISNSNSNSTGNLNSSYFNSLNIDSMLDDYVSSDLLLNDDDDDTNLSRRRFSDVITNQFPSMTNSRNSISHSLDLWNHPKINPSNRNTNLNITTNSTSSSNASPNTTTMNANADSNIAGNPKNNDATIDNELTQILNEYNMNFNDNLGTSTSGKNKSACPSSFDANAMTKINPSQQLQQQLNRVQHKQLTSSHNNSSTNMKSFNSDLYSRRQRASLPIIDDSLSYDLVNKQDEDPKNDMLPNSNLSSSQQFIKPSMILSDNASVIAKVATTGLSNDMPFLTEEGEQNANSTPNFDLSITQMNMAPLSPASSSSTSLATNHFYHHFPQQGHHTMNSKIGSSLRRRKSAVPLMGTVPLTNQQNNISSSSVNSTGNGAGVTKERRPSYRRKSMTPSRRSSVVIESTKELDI

Msn2 WT = biological target: T2, Msn2 WT (Saccharomyces cerevisiae, UniProt P33748)
T2 sequence: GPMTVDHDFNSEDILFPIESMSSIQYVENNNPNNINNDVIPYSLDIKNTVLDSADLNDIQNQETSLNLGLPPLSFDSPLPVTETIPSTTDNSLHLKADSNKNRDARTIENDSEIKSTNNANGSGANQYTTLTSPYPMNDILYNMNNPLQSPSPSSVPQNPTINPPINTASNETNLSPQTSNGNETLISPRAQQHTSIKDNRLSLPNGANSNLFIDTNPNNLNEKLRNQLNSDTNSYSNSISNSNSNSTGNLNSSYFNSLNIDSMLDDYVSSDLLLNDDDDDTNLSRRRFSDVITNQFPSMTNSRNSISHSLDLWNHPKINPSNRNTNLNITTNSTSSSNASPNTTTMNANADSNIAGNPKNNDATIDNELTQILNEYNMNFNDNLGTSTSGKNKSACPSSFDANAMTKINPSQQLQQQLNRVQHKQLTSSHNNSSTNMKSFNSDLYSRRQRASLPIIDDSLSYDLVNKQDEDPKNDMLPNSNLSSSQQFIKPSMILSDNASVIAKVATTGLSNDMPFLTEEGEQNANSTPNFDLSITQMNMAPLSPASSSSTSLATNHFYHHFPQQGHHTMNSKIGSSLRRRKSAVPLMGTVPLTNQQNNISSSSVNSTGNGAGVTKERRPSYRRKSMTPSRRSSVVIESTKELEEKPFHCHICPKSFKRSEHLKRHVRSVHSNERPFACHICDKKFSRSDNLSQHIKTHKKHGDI

Msn2 DBD = biological target: T3, Msn2 DBD (Saccharomyces cerevisiae, UniProt P33748)
T3 sequence: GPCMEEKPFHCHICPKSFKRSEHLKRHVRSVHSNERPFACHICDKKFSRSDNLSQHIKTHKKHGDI

Measured: binding result

B1: 51 bp DNA with motif (dsDNA)
DNA 1: CGAAATTATATGGATGAGTAGGTGGGGAAGGAAGTATGTGTAGGTGGCAGG
DNA 2: CCTGCCACCTACACATACTTCCTTCCCCACCTACTCATCCATATAATTTCG
binds: all assays above
